Reference: doi:10.1101/2024.11.22.624870

Molecular target: camel APN (aminopeptidase N) (camel)

hCoV/229E-inf1 spike protein (S) (from UniProt P15423 16-1173) (natural protein)
pseudovirus entry, percentage of usage (min-max scaled), without hTMPRSS2: 3%
